Source: the RNAGym collection of RNA variant scans (doi:10.1101/gr.219683.116)

B1: mRNA-splicing (parent)
chain: AGUUGCUGCUGGGAGCUCCAGCACAGUGAAAUGGACAGAAGGGCAGAGCAA

Variants of: B1
Experiment: exon inclusion enrichment index; higher = more inclusion; WT1 exon 5 minigene, HEK293

| Variant | exon inclusion enrichment index |
| --- | --- |
| G5A C6G U7G C9A G15C C16U | 0.000839 |
| G5A C6G U7G C9A G15C C16G | 0.004 |
| G5A C6G U7G C9A G15C C16A | 0.00139 |
| G5A C6G U7G C9A G15A C16A | 0.000736 |
| G5A C6G U7G C9A G15A C16U | 0.000755 |
| G5A C6G U7G C9A G15A C16G | 0.00097 |
| G5A C6G U7G C9A G21U C22U | 0.00236 |
| G5A C6G U7G C9A G21U C22G | 0.000869 |
| G5A C6G U7G C9A G21U C22A | 0.00074 |
| G5A C6G U7G C9A G26U U27C | 0.0253 |
| G5A C6G U7G C9A G26U U27A | 0.00104 |
| G5A C6G U7G C9A G26U U27G | 0.00474 |
| G5A C6G U7G C9A C19U | 0.00126 |
| G5A C6G U7G C9A C19A | 0.00105 |
| G5A C6G U7G C9A C19G | 0.00133 |
| G5A C6G U7G C9A A45G G46U | 0.00135 |
| G5A C6G U7G C9A A45G G46A | 0.0107 |
| G5A C6G U7G C9A A45G G46C | 0.00144 |
| G5A C6G U7G C9A G28C A29U | 0.00174 |
| G5A C6G U7G C9A G28C A29C | 0.00678 |
| G5A C6G U7G C9A G28C A29G | 0.0115 |
| G5A C6G U7G C9A G12C G13C | 0.00164 |
| G5A C6G U7G C9A G12C G13U | 0.000686 |
| G5A C6G U7G C9A G12C G13A | 0.00586 |

| Variant | exon inclusion enrichment index |
| --- | --- |
| G5A C6G U7G C9A G46A | 0.00583 |
| G5A C6G U7G C9A G46U | 0.000617 |
| G5A C6G U7G C9A G46C | 0.00111 |
| G5A C6G U7G C9A U32C G33U | 0.00177 |
| G5A C6G U7G C9A U32C G33C | 0.00477 |
| G5A C6G U7G C9A U32C G33A | 0.00102 |
| G5A C6G U7G C9A G46U A47U | 0.00177 |
| G5A C6G U7G C9A G46U A47C | 0.0165 |
| G5A C6G U7G C9A G46U A47G | 0.00156 |
| G5A C6G U7G C9A C36G A37U | 0.00107 |
| G5A C6G U7G C9A C36G A37C | 0.00103 |
| G5A C6G U7G C9A C36G A37G | 0.00376 |
| G5A C6G U7G C9A C24G A25U | 0.00102 |
| G5A C6G U7G C9A C24G A25G | 0.00108 |
| G5A C6G U7G C9A C24G A25C | 0.00471 |
| G5A C6G U7G C9A U10A G11A | 0.00112 |
| G5A C6G U7G C9A U10A G11U | 0.00545 |
| G5A C6G U7G C9A U10A G11C | 0.0223 |
| G5A C6G U7G C9A G26A | 0.00477 |
| G5A C6G U7G C9A G26U | 0.00112 |
| G5A C6G U7G C9A G26C | 0.00298 |
| G5A C6G U7G C9A G28A A29U | 0.000814 |
| G5A C6G U7G C9A G28A A29C | 0.00171 |
| G5A C6G U7G C9A G28A A29G | 0.000786 |

| Variant | exon inclusion enrichment index |
| --- | --- |
| G5A C6G U7G C9A C44A A45G | 0.0102 |
| G5A C6G U7G C9A C44A A45U | 0.0154 |
| G5A C6G U7G C9A C44A A45C | 0.00399 |
| G5A C6G U7G C9A A47U G48A | 0.00057 |
| G5A C6G U7G C9A A47U G48C | 0.000966 |
| G5A C6G U7G C9A A47U G48U | 0.000738 |
| G5A C6G U7G C9A G48C | 0.00243 |
| G5A C6G U7G C9A G48A | 0.000556 |
| G5A C6G U7G C9A G48U | 0.00708 |
| G5A C6G U7G C9A C19G A20C | 0.00232 |
| G5A C6G U7G C9A C19G A20U | 0.00167 |
| G5A C6G U7G C9A C19G A20G | 0.00172 |
| G5A C6G U7G C9A C22U A23U | 0.00262 |
| G5A C6G U7G C9A C22U A23G | 0.00203 |
| G5A C6G U7G C9A C22U A23C | 0.000879 |
| G5A C6G U7G C9A G42A G43C | 0.0943 |
| G5A C6G U7G C9A G42A G43U | 0.0457 |
| G5A C6G U7G C9A G42A G43A | 0.0419 |
| G5A C6G U7G C9A C44U A45G | 0.00135 |
| G5A C6G U7G C9A C44U A45C | 0.00286 |
| G5A C6G U7G C9A C44U A45U | 0.000761 |
| G5A C6G U7G C9A G33A G34C | 0.000823 |
| G5A C6G U7G C9A G33A G34U | 0.000917 |
| G5A C6G U7G C9A G33A G34A | 0.000844 |

| Variant | exon inclusion enrichment index |
| --- | --- |
| G5A C6G U7G C9A C22G A23U | 0.000928 |
| G5A C6G U7G C9A C22G A23C | 0.000809 |
| G5A C6G U7G C9A C22G A23G | 0.00134 |
| G5A C6G U7G C9A U17C C18A | 0.00107 |
| G5A C6G U7G C9A U17C C18G | 0.00304 |
| G5A C6G U7G C9A U17C C18U | 0.00126 |
| G5A C6G U7G C9A C16A U17C | 0.00344 |
| G5A C6G U7G C9A C16A U17A | 0.00207 |
| G5A C6G U7G C9A C16A U17G | 0.00129 |
| G5A C6G U7G C9A G26C U27C | 0.0114 |
| G5A C6G U7G C9A G26C U27G | 0.0205 |
| G5A C6G U7G C9A G26C U27A | 0.00255 |
| G5A C6G U7G C9A A45U | 0.00141 |
| G5A C6G U7G C9A A45G | 0.00308 |
| G5A C6G U7G C9A C24U A25U | 0.000784 |
| G5A C6G U7G C9A C24U A25C | 0.0183 |
| G5A C6G U7G C9A C24U A25G | 0.00148 |
| G5A C6G U7G C9A G41U G42A | 0.000614 |
| G5A C6G U7G C9A G41U G42C | 0.00698 |
| G5A C6G U7G C9A G41U G42U | 0.00223 |
| G5A C6G U7G C9A G41A G42U | 0.00291 |
| G5A C6G U7G C9A G41A G42C | 0.0072 |
| G5A C6G U7G C9A G41A G42A | 0.0013 |
| G5A C6G U7G C9A C19U A20U | 0.00173 |

| Variant | exon inclusion enrichment index |
| --- | --- |
| G5A C6G U7G C9A C19U A20C | 0.00291 |
| G5A C6G U7G C9A C19U A20G | 0.00155 |
| G5A C6G U7G C9A G41C G42C | 0.0196 |
| G5A C6G U7G C9A G41C G42A | 0.00376 |
| G5A C6G U7G C9A G41C G42U | 0.0271 |
| G5A C6G U7G C9A G12U G13C | 0.00117 |
| G5A C6G U7G C9A G12U G13A | 0.000517 |
| G5A C6G U7G C9A G12U G13U | 0.000533 |
| G5A C6G U7G C9A G41C | 0.013 |
| G5A C6G U7G C9A G41U | 0.000489 |
| G5A C6G U7G C9A G41A | 0.0013 |
| G5A C6G U7G C9A C16U U17C | 0.000766 |
| G5A C6G U7G C9A C16U U17G | 0.0132 |
| G5A C6G U7G C9A C16U U17A | 0.00236 |
| G5A C6G U7G C9A G13C A14U | 0.0025 |
| G5A C6G U7G C9A G13C A14C | 0.00967 |
| G5A C6G U7G C9A G13C A14G | 0.00374 |
| G5A C6G U7G C9A G33C G34U | 0.00222 |
| G5A C6G U7G C9A G33C G34C | 0.0007 |
| G5A C6G U7G C9A G33C G34A | 0.000739 |
| G5A C6G U7G C9A U27C G28A | 0.00952 |
| G5A C6G U7G C9A U27C G28U | 0.00816 |
| G5A C6G U7G C9A U27C G28C | 0.0122 |
| G5A C6G U7G C9A G43A C44U | 0.00188 |

| Variant | exon inclusion enrichment index |
| --- | --- |
| G5A C6G U7G C9A G43A C44G | 0.0259 |
| G5A C6G U7G C9A G43A C44A | 0.0069 |
| G5A C6G U7G C9A G43U | 0.00185 |
| G5A C6G U7G C9A G43C | 0.00197 |
| G5A C6G U7G C9A G43A | 0.00629 |
| G5A C6G U7G C9A C18A C19G | 0.00131 |
| G5A C6G U7G C9A C18A C19A | 0.0013 |
| G5A C6G U7G C9A C18A C19U | 0.00126 |
| G5A C6G U7G C9A A47U | 0.00119 |
| G5A C6G U7G C9A A47C | 0.0181 |
| G5A C6G U7G C9A A47G | 0.00123 |
| G5A C6G U7G C9A U27A G28U | 0.00161 |
| G5A C6G U7G C9A U27A G28A | 0.00156 |
| G5A C6G U7G C9A U27A G28C | 0.0045 |
| G5A C6G U7G C9G U10G | 0.0568 |
| G5A C6G U7G C9G U10A | 0.00648 |
| G5A C6G U7G C9G U10C | 0.00245 |
| G5A C6G U7G C9A G28U A29G | 0.00238 |
| G5A C6G U7G C9A G28U A29U | 0.000755 |
| G5A C6G U7G C9A G28U A29C | 0.000797 |
| G5A C6G U7G C9A G11C | 0.00307 |
| G5A C6G U7G C9A G11U | 0.00542 |
| G5A C6G U7G C9A G11A | 0.000945 |
| G5A C6G U7G C9A G46C A47G | 0.00214 |

| Variant | exon inclusion enrichment index |
| --- | --- |
| G5A C6G U7G C9A G46C A47U | 0.00364 |
| G5A C6G U7G C9A G46C A47C | 0.00161 |
| G5A C6G U7G C9A G46A A47C | 0.00647 |
| G5A C6G U7G C9A G46A A47U | 0.00359 |
| G5A C6G U7G C9A G46A A47G | 0.00174 |
| G5A C6G U7G C9A G34A A35G | 0.00114 |
| G5A C6G U7G C9A G34A A35U | 0.00125 |
| G5A C6G U7G C9A G34A A35C | 0.00134 |
| G5A C6G U7G C9A U10G G11C | 0.00673 |
| G5A C6G U7G C9A U10G G11A | 0.00349 |
| G5A C6G U7G C9A U10G G11U | 0.00152 |
| G5A C6G U7G C9A U17A | 0.00695 |
| G5A C6G U7G C9A U17C | 0.00172 |
| G5A C6G U7G C9A U17G | 0.00284 |
| G5A C6G U7G C9A C16A | 0.00192 |
| G5A C6G U7G C9A C16G | 0.00149 |
| G5A C6G U7G C9A C16U | 0.000705 |
| G5A C6G U7G C9A G12A G13A | 0.00149 |
| G5A C6G U7G C9A G12A G13U | 0.00417 |
| G5A C6G U7G C9A G12A G13C | 0.0057 |
| G5A C6G U7G C9A A47G G48C | 0.000801 |
| G5A C6G U7G C9A A47G G48A | 0.000837 |
| G5A C6G U7G C9A A47G G48U | 0.000624 |
